Laboratory results published in patent publication US10246503B2, “Method of improving the pharmacokinetic profile of a therapeutic polypeptide and the use thereof” (BEIJING ANXINHUAIDE BIOTECH. CO., LTD, priority 2012, dated 2019).

Key:
[1] = target: human GLP-1 receptor (GLP-1R) (human, UniProt P43220 24-463); assay: cell-based or functional assay
[2] = analytical gel filtration (Superdex200), apparent molecular weight; format: physicochemical
Text: In the fusion protein of GLP-1(A8G/G22E)-Fn8-COL18NC1 described in example 4, the flexible unstructured linker between Fn8 and COL18NC1 contains six residues (GGGSGG; SEQ ID NO:89). To generate the flexible un-structured linkers with different lengths, we have synthesized the genes GLP-1(A8G/G22E/R36S)-Fn8-COL18NC1-20, GLP-1(A8G/G22E/R36S)-Fn8-COL18NC1-30, GLP-1(A8G/G22E/R36S)-Fn8-COL18NC1-54 and GLP-1(A8G/G22E/R36S)-Fn8-COL18NC1-60. In these genes, the length of the flexible unstructured polypeptide linker between Fn8 and COL18NC1 contained 20, 30, 54 and 60 residues, respectively. The protein sequences of GLP-1(A8G/G22E/R36S)-Fn8-COL18NC1-20, GLP-1(A8G/G22E/R36S)-Fn8-COL18NC1-30, GLP-1(A8G/G22E/R36S)-Fn8-COL18NC1-54 and GLP-1(A8G/G22E/R36S)-Fn8-COL18NC1-60 are listed as SEQ ID NO:8-11. The synthetic genes of GLP-1(A8G/G22E/R36S)-Fn8-COL18NC1-20, GLP-1(A8G/G22E/R36S)-Fn8-COL18NC1-30, GLP-1(A8G/G22E/R36S)-Fn8-COL18NC1-54 and GLP-1(A8G/G22E/R36S)-Fn8-COL18NC1-60 were grafted to the pET29b by NdeI and XhoI for protein expressions. The expression and purification of these fusion proteins were carried out using similar protocols described in example 3. To estimate the hydrodynamic radius and/or the Rg of the fusion proteins, the purified proteins were loaded on an analytical gel filtration column Superdex200 (GE Healthcare).
Moreover, the flexible unstructured linker between the therapeutic polypeptide and the scaffold protein may adjust the hydrodynamic radius and/or the Rg of the fusion molecule in a tunable manner.
The apparent molecular weights of the fusion proteins were estimated by use of an analytical gel filtration column Superdex-200 (GE Healthcare) mounted on the AKTA FPLC system (GE Healthcare). The purified fusion proteins GLP-1-Fn8, GLP-1-Fn8-COL18NC1, GLP-1(A8G/G22E/R36G)-Fn8-p246-COL18NC1 were loaded on the Superdex200 column. GLP-1-Fn8 is a fusion protein of GLP-1 and Fn8 and contains the first 144 amino acid residues of the fusion protein GLP-1-Fn8-COL18NC1 (SEQ ID NO:2). […] The genuine molecular weights for the fusion proteins GLP-1-Fn8 monomer, GLP-1-Fn8-COL18NC1 trimer, and GLP-1(A8G/G22E/R36G)-Fn8-p246-COL18NC1 trimer were ˜15 Kd, 65 Kd and 123Kd, respectively.

[3] = pharmacokinetics in SD rats, sandwich ELISA (Example 15); format: in vivo, SD (Sprague-Dawley) rats; conditions: intraperitoneal, 5 nmol/kg
Experimental: To evaluate the pharmacokinetics profiles for the GLP-1 containing fusion proteins generated using the method of the invention, we purified the recombinant fusion proteins of GLP-1-Fn8-COL18NC1, GLP1(A8G/G22E/R36G)-Fn8-p246-COL18NC1 and GLP1(A8G/G22E/R36G)-Fn8-p285-COL18NC1 in PBS buffer, pH 7.2. These fusion proteins were administered into SD (Sprague-Dawley) rats by intraperitoneal injections at the dose of 5 nmol/kg for animals, respectively. Blood samples were taken at various time points after injections such as 0-min, 30-min, 1-hour, 2-hour, 4-hour, 6-hour, 8-hour, 24-hour, 48-hour, 3-day, 4-day, 5-day, 6-day and 7-day. The serum samples were centrifuged and kept at −80° C. freezer.
The GLP-1 concentrations within the samples were examined by use of the sandwich ELISA method. The rabbit polyclonal antibody against human Fibronectin at the concentration of 3 ug/ml (Ab299, Abcam company) was coated on ELISA plate for 1 hour at room temperature. Then the plate was washed by PBST buffer three times and the wells were blocked by PBS with 10% FBS for 1 hour at room temperature. The plate was washed three times before the serum samples containing GLP-1 fusion proteins were added. The serum samples could be diluted to 20-10000 folds before use. The ELISA plate was incubated with the serum samples at room temperature for 1 hour and then washed by PBST buffer five times. Then mouse monoclonal against human GLP-1 peptide antibody (sc57510, Santa Cruz Biotechnology) at the concentration of 1 ug/ml in PBST buffer was added to the wells. The plate was washed extensively after incubation of 1 hour at room temperature. The secondary antibody, […] HRP conjugated antibody (Beijing ZSGB-Bio company, ZB 5301), was added into the wells and the color was developed using TMB (3,3′,5,5′-tetramethylbenzidine, BD Biosciences, Cat 555214). The plate reader (Bio-Rad microplate reader Model 680) was utilized to obtain the OD450 readings. This method has been calibrated using purified proteins first.
The pharmacokinetics parameters were obtained by using the WinNonlin software (Table 5).

Row | EC50 (nM) measured by cAMP assay [1] | Molecule | apparent molecular weight [2] | other results
1 | 2.1 nM | GLP-1-Fn8-COL18NC1 (ligand) HAEGTFTSDVSSYLEGQAAKEFIAWLVKGRGGGGSGGGGSAVPPPTDLRFTNIGPDTMRVTWAPPPSIDLTNFLVRYSPVKNEEDVAELSISPSDNAVVLTNLLPGTEYVVSVSSVYEQHESTPLRGRQKTGGGGSGGGASSGVRLWATRQAMLGQVHEVPEGWLIFVAEQEELYVRVQNGFRKVQLEARTPLPRG |  | 
2 | 1.3 nM | GLP-1(A8S/G22E)-Fn8-COL18NC1 (ligand) HSEGTFTSDVSSYLEEQAAKEFIAWLVKGRGGGGSGGGGSAVPPPTDLRFTNIGPDTMRVTWAPPPSIDLTNFLVRYSPVKNEEDVAELSISPSDNAVVLTNLLPGTEYVVSVSSVYEQHESTPLRGRQKTGGGGSGGGASSGVRLWATRQAMLGQVHEVPEGWLIFVAEQEELYVRVQNGFRKVQLEARTPLPRG |  | 
3 | 1.2 nM | GLP-1(A8G/G22E/R36G)-Fn8-COL18NC1 (ligand) HGEGTFTSDVSSYLEEQAAKEFIAWLVKGGGGGGSGGGGSAVPPPTDLRFTNIGPDTMRVTWAPPPSIDLTNFLVRYSPVKNEEDVAELSISPSDNAVVLTNLLPGTEYVVSVSSVYEQHESTPLRGRQKTGGGGSGGGASSGVRLWATRQAMLGQVHEVPEGWLIFVAEQEELYVRVQNGFRKVQLEARTPLPRG |  | 
4 | 1.3 nM | GLP-1(A8V/G22E)-Fn8-COL18NC1 (ligand) HVEGTFTSDVSSYLEEQAAKEFIAWLVKGRGGGGSGGGGSAVPPPTDLRFTNIGPDTMRVTWAPPPSIDLTNFLVRYSPVKNEEDVAELSISPSDNAVVLTNLLPGTEYVVSVSSVYEQHESTPLRGRQKTGGGGSGGGASSGVRLWATRQAMLGQVHEVPEGWLIFVAEQEELYVRVQNGFRKVQLEARTPLPRG |  | 
5 | 1.3 nM | GLP-1(A8G/G22E/R36S)-Fn8-COL18NC1 (ligand) HGEGTFTSDVSSYLEEQAAKEFIAWLVKGSGGGGSGGGGSAVPPPTDLRFTNIGPDTMRVTWAPPPSIDLTNFLVRYSPVKNEEDVAELSISPSDNAVVLTNLLPGTEYVVSVSSVYEQHESTPLRGRQKTGGGGSGGGASSGVRLWATRQAMLGQVHEVPEGWLIFVAEQEELYVRVQNGFRKVQLEARTPLPRG | ~100 Kd | 
6 | 1.3 nM | GLP-1(A8G/G22E)-Fn8-COL18NC1 (ligand) HGEGTFTSDVSSYLEEQAAKEFIAWLVKGRGGGGSGGGGSAVPPPTDLRFTNIGPDTMRVTWAPPPSIDLTNFLVRYSPVKNEEDVAELSISPSDNAVVLTNLLPGTEYVVSVSSVYEQHESTPLRGRQKTGGGGSGGGASSGVRLWATRQAMLGQVHEVPEGWLIFVAEQEELYVRVQNGFRKVQLEARTPLPRG |  | 
7 | 0.5 nM | GLP-1(A8G/G22E/R36S)-Fn8-COL18NC1-60 (ligand) HGEGTFTSDVSSYLEEQAAKEFIAWLVKGSGGGGSGGAVPPPTDLRFTNIGPDTMRVTWAPPPSIDLTNFLVRYSPVKNEEDVAELSISPSDNAVVLTNLLPGTEYVVSVSSVYEQHESTPLRGRQKTGGGGSGGGSGGGSTASSASTKGPSGGGSGGGSGGGSAPSSKSTSGGTAAGGGSGGGSGGGSGASSGVRLWATRQAMLGQVHEVPEGWLIFVAEQEELYVRVQNGFRKVQLEARTPLPRG | ~200 Kd | 
8 | 0.4 nM | GLP-1(A8G/G22E/R36G)-Fn8-p285-COL18NC1 (ligand) HGEGTFTSDVSSYLEEQAAKEFIAWLVKGGGSGGGSGGGSGGGSGGGSGSGGAVPPPTDLRFTNIGPDTMRVTWAPPPSIDLTNFLVRYSPVKNEEDVAELSISPSDNAVVLTNLLPGTEYVVSVSSVYEQHESTPLRGRQKTGGGGSGGGSGSGSESGSGGGSTSSGTGSETESPGSGSESGSGPSSAGSGSGSESGSGSGSSGPGSTGGSGSESGSGPGSSGTGGTATGSGSESGSGPGSSGPGSTGSGSGSESGSGSGSSGTGSTGGSGSESGSGPGSPRPGSTGTGSGSESGSGPGSSERGSAGGSGSESGSGTSESSASGSTGGSGSESGSGSESGSGSGSESGSGPESPGSGGSGSESGSGTSGSTGSGSESGSGPGSSGPGSTGSGSGSESGSGSGSSGTGSTGGSGSESGSGGGSGGGSGGGASSGVRLWATRQAMLGQVHEVPEGWLIFVAEQEELYVRVQNGFRKVQLEARTPLPRG |  | 
9 |  | GLP1(A8G/G22E/R36G)-Fn8-p285-COL18NC1: fusion with Fn8, pCloud p285 and COL18NC1; SEQ ID NO: 23 (protein) HGEGTFTSDVSSYLEEQAAKEFIAWLVKGGGSGGGSGGGSGGGSGGGSGSGGAVPPPTDLRFTNIGPDTMRVTWAPPPSIDLTNFLVRYSPVKNEEDVAELSISPSDNAVVLTNLLPGTEYVVSVSSVYEQHESTPLRGRQKTGGGGSGGGSGSGSESGSGGGSTSSGTGSETESPGSGSESGSGPSSAGSGSGSESGSGSGSSGPGSTGGSGSESGSGPGSSGTGGTATGSGSESGSGPGSSGPGSTGSGSGSESGSGSGSSGTGSTGGSGSESGSGPGSPRPGSTGTGSGSESGSGPGSSERGSAGGSGSESGSGTSESSASGSTGGSGSESGSGSESGSGSGSESGSGPESPGSGGSGSESGSGTSGSTGSGSESGSGPGSSGPGSTGSGSGSESGSGSGSSGTGSTGGSGSESGSGGGSGGGSGGGASSGVRLWATRQAMLGQVHEVPEGWLIFVAEQEELYVRVQNGFRKVQLEARTPLPRG |  | AUCall ([3]; Rats): 475.3 µg·h/mL; CL/F ([3]; Rats): 1.37 mL/h/kg; Cmax ([3]; Rats): 7980 ng/mL; T½ ([3]; Rats): 31.2 h; Vss ([3]; Rats): 0.062 L/kg; half life ([3]; SD rats): 31.2 h
10 |  | GLP-1-Fn8: fusion protein of GLP-1 and Fn8, first 144 residues of SEQ ID NO:2; monomer in solution (protein) HAEGTFTSDVSSYLEGQAAKEFIAWLVKGRGGGGSGGGGSAVPPPTDLRFTNIGPDTMRVTWAPPPSIDLTNFLVRYSPVKNEEDVAELSISPSDNAVVLTNLLPGTEYVVSVSSVYEQHESTPLRGRQKTGGGGSGGGASSGV | ~20 Kd | 
